Publication PMC2807035
Blank lines part the entries; values can stand above or below the molecule they belong to.

Experiments:
[1] = target: triple-helical collagen peptide GPC-(GPP)5-GPRGQOGVNleGFO-(GPP)5-GPC-NH2; experiment: ELISA; solid-phase binding assay: DS2-Fc added to 96-well plates coated with triple-helical collagen peptides at 10 μg/ml
[2] = target: triple-helical collagen peptide Ac-GPOGPOGPOGPRGQOGVNleGFOGPOGPOG-NH2; experiment: crystal structure; complex formed at molar peptide:protein ratio ~1.5:1; hanging drop vapor diffusion at room temperature, 0.1 M PCB pH 7.0, 25% PEG1500; 1.6 Å, molecular replacement
[3] = target: triple-helical collagen peptide Ac-GPOGPOGPOGPRGQOGVNleGFOGPOGPOG-NH2; experiment: SEC; analytical size exclusion chromatography, 24 ml Superdex 75, 20 mM MES, 100 mM NaCl pH 6.5; 16 nmol DS domain in PBS alone or mixed with varying amounts of collagen peptide (two-fold molar excess for the complex), incubated 30 min in 0.5 ml

fold increase of binding against the methionine peptide [1]: 10 fold
Molecule: DS2-Fc (Fc-tagged DS domain of DDR2) (Fc fusion)

stoichiometry N [2]: 3
Molecule: triple-helical collagen peptide Ac-GPOGPOGPOGPRGQOGVNleGFOGPOGPOG-NH2

stoichiometry N [3]: 1
B1: DS domain of human DDR2 (His-tagged, residues 26-190) (domain or fragment)
chain: NPAICRYPLGMSGGQIPDEDITASSQWSESTAAKYGRLDSEEGDGAWCPEIPVEPDDLKEFLQIDLHTLHFITLVGTQGRHAGGHGIEFAPMYKINYSRDGTRWISWRNRHGKQVLDGNSNPYDIFLKDLEPPIVARFVRFIPVTDHSMNVCMRVELYGCVWLDG
